Ends that are not written are not given here.
Key:
Experiment in all cases: ELISA on biotinylated peptides of the alanine library on streptavidin plates
[1] = target: T1, peptide A16 of the second library (Aβ12-20 with aa 16 changed to alanine) (also: biotinylated, position not given here)
T1 peptide: VHHQALVFF
Excerpt: (§1) One library comprised a total of 33 biotinylated peptides covering the complete amino acid (aa) sequence of Aβ1-42 (produced by Mimotopes and purchased from ANAWA Trading SA), the second library contains biotinylated peptides using peptide 12 (aa12-20 of Aβ) from the first peptide library and substituting each as in the sequence by an alanine (see table 3 below), and the third library contains biotinylated peptides 13, 14, or 15 (aa 13-21, 14-22 or 15-23 of Aβ) and substituting in each case the last amino acids to an alanine or to a glycine for as 21 which is already an alanine (see table 4 below). A biotinylated complete Aβ1-42 peptide was used as positive control (Bachem). Epitope mapping was done according to the manufacturer's (Mimotopes) instructions. Briefly, Streptavidin coated plates (NUNC) were blocked with 0.1% BSA in PBS overnight at 4° C. After washing with PBS-0.05% Tween 20, plates were coated for 1 hour at RT with the different peptides from the library, diluted in 0.1% BSA, 0.1% Sodium Azide in PBS to a final concentration of 10 μM. […] Plates were washed again and incubated with alkaline phosphatase conjugated goat anti human IgG for 1 h at RT. After final washing, plates were incubated with phosphatase substrate (pNPP) and read at 405 nm using an ELISA plate reader.

[2] = target: T2, peptide A20 of the second library (Aβ12-20 with aa 20 changed to alanine) (also: biotinylated, position not given here)
T2 peptide: VHHQKLVFA
Excerpt: as §1

[3] = target: T3, peptide A19 of the second library (Aβ12-20 with aa 19 changed to alanine) (also: biotinylated, position not given here)
T3 peptide: VHHQKLVAF
Excerpt: as §1

[4] = target: T4, peptide A17 of the second library (Aβ12-20 with aa 17 changed to alanine) (also: biotinylated, position not given here)
T4 peptide: VHHQKAVFF
Excerpt: as §1

Measured: binding result

B1: humanized anti-human amyloid beta monoclonal antibody hC2 (antibody, human IgG4 S228P, kappa)
heavy: not shown
light: DIVMTQSPLSLPVTPGEPASISCRSSQSLVYSNGDTYLHWYLQKPGQSPQLLIYKVSNRFSGVPDRFSGSGSGTDFTLKISRVEAEDVGVYYCSQSTHVPWTFGQGTKVEIKRTVAAPSVFIFPPSDEQLKSGTASVVCLLNNFYPREAKVQWKVDNALQSGNSQESVTEQDSKDSTYSLSSTLTLSKADYEKHKVYACEVTHQGLSSPVTKSFNRGEC
notes: also called humanized antibody C2; humanized C2
no binding (tested: 200 ng/ml): all assays above

— patent US20160168234A1 (published 2016)
